Test results from patent publication US20210032305A1 (KINDRED BIOSCIENCES, published 2021).

Tests used:
[1] = target: T1, human EPOR-Fc (Catalog No. 963-ER-050, R&D Systems) (human, UniProt P19235 25-250, biotinylated in Example 10 only); experiment: biolayer interferometry (ForteBio); biotinylated human EPOR on streptavidin tips, EPO analog 20-0.25 nM, 1:1 fit
T1 construct: extracellular domain; treated as one molecule; also called extracellular domain of human EPOR; human EPO receptor; not shown: Fc part of the bought EPOR-Fc
T1 sequence (looked up): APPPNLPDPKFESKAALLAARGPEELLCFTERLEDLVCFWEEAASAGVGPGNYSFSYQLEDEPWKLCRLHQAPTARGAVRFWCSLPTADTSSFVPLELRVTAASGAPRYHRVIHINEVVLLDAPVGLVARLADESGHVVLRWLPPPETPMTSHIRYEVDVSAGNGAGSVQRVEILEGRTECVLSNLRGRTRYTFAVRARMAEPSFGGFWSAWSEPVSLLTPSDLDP
From the text: Dissociation was monitored for 600 seconds. A buffer only blank curve was subtracted to correct for any drift.

[2] = target: T2, Feline EPOR201_ECD_human Fc (feline EPOR fused to human Fc, biotinylated with EZ-Link NHS-LC-biotin); experiment: biolayer interferometry (ForteBio); biotinylated receptor-Fc on streptavidin tips, EPO analog 150-1.9 nM, 1:1 fit
T2 construct: also called fEPOR201_ECD-Fc; feline EPOR201-ECD-Fc
T2 sequence (chain, as listed by the source limits assumed): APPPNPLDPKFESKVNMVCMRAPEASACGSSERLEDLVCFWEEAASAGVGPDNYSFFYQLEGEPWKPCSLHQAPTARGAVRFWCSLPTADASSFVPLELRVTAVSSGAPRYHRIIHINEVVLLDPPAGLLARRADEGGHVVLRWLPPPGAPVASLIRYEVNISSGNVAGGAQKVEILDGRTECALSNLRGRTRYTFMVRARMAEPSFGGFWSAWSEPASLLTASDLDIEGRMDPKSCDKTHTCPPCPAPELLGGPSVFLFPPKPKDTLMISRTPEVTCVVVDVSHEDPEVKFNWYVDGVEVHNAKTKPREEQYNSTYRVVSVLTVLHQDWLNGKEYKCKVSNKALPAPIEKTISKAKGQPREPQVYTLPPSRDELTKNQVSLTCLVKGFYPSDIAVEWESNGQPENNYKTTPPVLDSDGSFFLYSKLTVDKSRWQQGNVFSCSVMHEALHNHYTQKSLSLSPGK
Description: (§1) The binding analysis was performed as follows. Briefly, fEPOR201_ECD-Fc and fEPOR202_ECD-Fc were biotinylated using EZ-Link NHS-LC-biotin (Catalog No. 21336, Thermo Scientific). The free unreacted biotin was removed by dialysis. Biotinylated fEPOR201_ECD-Fc and fEPOR202_ECD-Fc were captured on streptavidin sensor tips (Catalog No. 18-509, ForteBio).
(§2) Dissociation was monitored for 600 seconds. A buffer only blank curve was subtracted to correct for any drift. The data were fit to a 1:1 binding model using ForteBio™ data analysis software to determine the kₒₙ (association rate constant), koff (dissociation rate constant) and the Kd (dissociation constant). […] The buffer for dilutions and all binding steps was: 200 mM phosphate, 150 mM NaCl, 0.02% Tween-20, 0.05% sodium azide, and 0.1 mg BSA, pH7.4.

[3] = target: T3, Feline EPOR202_ECD_human Fc (feline EPOR fused to human Fc, biotinylated with EZ-Link NHS-LC-biotin); experiment: as above
T3 construct: also called fEPOR202_ECD-Fc; feline EPOR202-ECD-Fc
T3 sequence (chain, as listed by the source limits assumed): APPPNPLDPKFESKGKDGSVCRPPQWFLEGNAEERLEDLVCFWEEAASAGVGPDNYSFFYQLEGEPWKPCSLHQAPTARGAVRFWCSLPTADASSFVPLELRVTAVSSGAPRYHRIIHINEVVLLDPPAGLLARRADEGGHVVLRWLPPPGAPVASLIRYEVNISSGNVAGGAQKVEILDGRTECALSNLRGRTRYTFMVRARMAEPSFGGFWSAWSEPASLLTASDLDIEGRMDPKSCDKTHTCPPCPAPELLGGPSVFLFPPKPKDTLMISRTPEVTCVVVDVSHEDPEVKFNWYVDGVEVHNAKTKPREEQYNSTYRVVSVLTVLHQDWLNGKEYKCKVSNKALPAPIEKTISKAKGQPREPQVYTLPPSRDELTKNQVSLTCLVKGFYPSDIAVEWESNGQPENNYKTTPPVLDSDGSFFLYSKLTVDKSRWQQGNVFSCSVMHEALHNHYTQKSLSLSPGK
Description: as §1, §2

human EPOR on TF-1 cells = target: T4, human EPOR on TF-1 cells (human, UniProt P19235 25-508); experiment: cell-based or functional assay
T4 sequence (looked up): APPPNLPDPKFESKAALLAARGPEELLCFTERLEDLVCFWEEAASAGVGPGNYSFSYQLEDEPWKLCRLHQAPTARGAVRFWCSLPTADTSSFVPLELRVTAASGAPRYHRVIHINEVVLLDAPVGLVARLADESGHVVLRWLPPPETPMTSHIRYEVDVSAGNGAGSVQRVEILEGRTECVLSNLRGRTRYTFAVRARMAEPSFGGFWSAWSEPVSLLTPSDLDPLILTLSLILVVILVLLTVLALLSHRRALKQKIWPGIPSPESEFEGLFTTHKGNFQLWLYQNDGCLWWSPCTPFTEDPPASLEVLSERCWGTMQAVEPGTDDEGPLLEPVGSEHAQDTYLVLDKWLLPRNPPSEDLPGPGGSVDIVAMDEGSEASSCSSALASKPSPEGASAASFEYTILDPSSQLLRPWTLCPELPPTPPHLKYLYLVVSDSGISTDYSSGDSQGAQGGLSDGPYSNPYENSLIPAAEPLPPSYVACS

[4] = target: T5, Feline EPOR203_39A_ECD_Fc (feline EPOR fused to human Fc); experiment: sandwich ELISA: plate coated with anti-human EPO antibody, Analog 6-30 EV Mature captured in 2-fold dilutions from 500 ng/mL, feline EPOR203_39A_ECD_Fc added at 200 ng/mL, detected with anti-human Fc HRP; 4-parameter fit. The axis 'Conc' prints no unit; ng/mL is from paragraph 333
T5 construct: also called feline EPOR203-ECD-Fc; fEPOR203_ECD-Fc
T5 sequence (chain, as listed by the source limits assumed): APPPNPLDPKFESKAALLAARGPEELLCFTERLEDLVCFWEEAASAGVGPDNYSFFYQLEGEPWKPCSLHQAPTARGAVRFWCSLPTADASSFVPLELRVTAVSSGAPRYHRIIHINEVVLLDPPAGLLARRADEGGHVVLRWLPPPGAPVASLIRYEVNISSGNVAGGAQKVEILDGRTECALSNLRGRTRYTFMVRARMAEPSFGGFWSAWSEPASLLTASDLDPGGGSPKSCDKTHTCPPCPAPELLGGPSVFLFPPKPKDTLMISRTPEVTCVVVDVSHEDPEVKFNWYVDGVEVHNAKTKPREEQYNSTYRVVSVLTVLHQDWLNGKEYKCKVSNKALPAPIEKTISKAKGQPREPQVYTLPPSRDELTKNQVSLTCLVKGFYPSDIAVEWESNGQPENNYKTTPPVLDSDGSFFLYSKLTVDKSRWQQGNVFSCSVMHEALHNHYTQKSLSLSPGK
Description: Feline EPOR203_39A_ECD_Fc (200 ng/mL in 1% BSA-PBST buffer) was added to each well and binding allowed to proceed for 1 hour at room temperature. A rabbit anti-human Fc antibody and horseradish peroxidase (HRP) conjugate (0.2 μg/mL) was used for detection and left in the wells for 1 hour at room temperature. 3,3,5,5′-Tetramethylbenzidine (TMB) was applied to the wells as the HRP substrate and kept in the well for 5 to 7 minutes for signal development.

[5] = target: T1, human EPOR-Fc (Catalog No. 963-ER-050, …); experiment: ELISA 1: EPO analog captured by mouse anti-EPO antibody (MAB287), human EPOR-Fc at 200 ng/mL, anti-human Fc HRP
Description: (§3) A 96-well plate was coated with a mouse anti-EPO specific antibody (Catalog No. MAB287, clone 9C21D11, R&D Systems) to capture the EPO polypeptides. The EPO-bound wells were incubated with human EPOR-Fc at a concentration of 200 ng/mL and the bound EPOR was detected by anti-human Fc HRP conjugated antibody. The ELISA was performed a second time, but the three samples of EPO polypeptides were first treated with neuraminidase to remove the sialic acid.

[6] = target: T1, human EPOR-Fc (Catalog No. 963-ER-050, …); experiment: ELISA 2: as ELISA 1, EPO sample treated with neuraminidase first
Description: as §3

B1: Feline EPO Analog 6-30 G18V87 mature form (Analog 6-30 GV Mature) (ligand)
chain: APPRLICDSRVLERYILGAREAENVTMGCNETCSFSENITVPDTKVNFYTWKRMDVGQQAVEVWQGLALLSEAILRGQALLANSSQVNETLQLHVDKAVSSLRSLTSLLRALGAQKEATSLPEATSAAPLRTFTVDTLCKLFRIYSNFLRGKLTLYTGEACRRGDR
modifications: N-linked glycosylated and sialylated (CHO DG-44 expressed); fraction not specified in this assay
notes: also called feline EPO Analog 6-30 GV Mature
- Kd [1]: 0.0976 nM
- Kd [2]: 0.4 nM
- Kd [3]: 0.17 nM
- EC50, TF-1 cell proliferation (MTT) (human EPOR on TF-1 cells): 0.3 IU/mL

B2: Feline EPO Analog 6-30 E18V87 mature form (Analog 6-30 EV Mature) (ligand)
chain: APPRLICDSRVLERYILEAREAENVTMGCNETCSFSENITVPDTKVNFYTWKRMDVGQQAVEVWQGLALLSEAILRGQALLANSSQVNETLQLHVDKAVSSLRSLTSLLRALGAQKEATSLPEATSAAPLRTFTVDTLCKLFRIYSNFLRGKLTLYTGEACRRGDR
modifications: N-linked glycosylated and sialylated (CHO DG-44 expressed); fraction not specified in this assay
notes: also called Feline Analog 6-30 EV Mature; Sample 1
- EC50 [4]: 0.088 µg/mL
- EC50, TF-1 cell proliferation (MTT) (human EPOR on TF-1 cells): 0.00478 µg/mL

B3: Analog 6-30 GV Mature (acidic fraction) (ligand)
chain: APPRLICDSRVLERYILGAREAENVTMGCNETCSFSENITVPDTKVNFYTWKRMDVGQQAVEVWQGLALLSEAILRGQALLANSSQVNETLQLHVDKAVSSLRSLTSLLRALGAQKEATSLPEATSAAPLRTFTVDTLCKLFRIYSNFLRGKLTLYTGEACRRGDR
modifications: N-linked glycosylated; high sialylation, isoelectric point range of about 2 to about 3.5
notes: Same polypeptide as m1; glycoform fraction; In ELISA 2 it was treated with neuraminidase first; also called acidic (high sialylation) fraction of Analog 6-30 GV Mature
- EC50 [5]: 0.1 µg/mL
- EC50 [6]: 0.018 µg/mL

B4: Analog 6-30 GV Mature (basic fraction) (ligand)
chain: APPRLICDSRVLERYILGAREAENVTMGCNETCSFSENITVPDTKVNFYTWKRMDVGQQAVEVWQGLALLSEAILRGQALLANSSQVNETLQLHVDKAVSSLRSLTSLLRALGAQKEATSLPEATSAAPLRTFTVDTLCKLFRIYSNFLRGKLTLYTGEACRRGDR
modifications: N-linked glycosylated; low sialylation, isoelectric point range of about 4 to about 5 (Example 15), about 3.5 to about 5 (Example 6)
notes: Same polypeptide as m1; glycoform fraction; In ELISA 2 it was treated with neuraminidase first; also called basic (low sialylation) fraction of Analog 6-30 GV Mature
- EC50 [5]: 0.035 µg/mL
- EC50 [6]: 0.031 µg/mL

B5: Analog 6-30 EV Mature (acidic fraction) (ligand)
chain: APPRLICDSRVLERYILEAREAENVTMGCNETCSFSENITVPDTKVNFYTWKRMDVGQQAVEVWQGLALLSEAILRGQALLANSSQVNETLQLHVDKAVSSLRSLTSLLRALGAQKEATSLPEATSAAPLRTFTVDTLCKLFRIYSNFLRGKLTLYTGEACRRGDR
modifications: N-linked glycosylated; high sialylation (acidic fraction)
notes: Same polypeptide as m4; glycoform fraction; In ELISA 2 it was treated with neuraminidase first; also called acidic (high sialylation) fraction of Analog 6-30 EV Mature
- EC50 [5]: 0.045 µg/mL
- EC50 [6]: 0.02 µg/mL
